This passage reports Km and Vmax results from paper PMC9485241, “Biosynthesis of plant hemostatic dencichine in Escherichia coli” (Nature Communications, 2022).

Common to all, as to experiment: purified protein
The test system of one series is O=C(O)CC(=O)C(=O)O. The settings on record: 0.18 mM MnCl2, 100 mM Tris-HCl pH 8.0.
Another series deals with NC[C@H](N)C(=O)O. Particulars: oxalyl-CoA made in situ by excess PanE from 1 mM CoA, 1 mM NADP+, 1 mM glyoxylate, 50 mM Tris-HCl pH 7.5, 30 °C.
Substrate in the series “purified protein”: O=CC(=O)O
The series is classed as biochemical, Saccharomyces cerevisiae. The settings on record: 2 mM cytochrome c, 100 mM sodium phosphate pH 7.5.

Broadly, the Km is the concentration of substrate that gives half-maximal velocity. Usually Vmax stands for the top rate of the reaction or transport when substrate is in excess. For Fpoah (Fomitopsis palustris), in the series on O=C(O)CC(=O)C(=O)O, the Km stood at 420 µM and the maximal velocity (Vmax) was determined as 22.8 µM/min/mg.

Take LsBAHD (Lathyrus sativus): in the series with NC[C@H](N)C(=O)O, the Km is 520 µM and the maximal velocity (Vmax) was found to be 2.88 µM/min/mg.

B1: Scgloxdh (Cyb2p) (Saccharomyces cerevisiae S288C) (protein)
chain: EPKLDMNKQKISPAEVAKHNKPDDCWVVINGYVYDLTRFLPNHPGGQDVIKFNAGKDVTAIFEPLHAPNVIDKYIAPEKKLGPLQGSMPPELVCPPYAPGETKEDIARKEQLKSLLPPLDNIINLYDFEYLASQTLTKQAWAYYSSGANDEVTHRENHNAYHRIFFKPKILVDVRKVDISTDMLGSHVDVPFYVSATALCKLGNPLEGEKDVARGCGQGVTKVPQMISTLASCSPEEIIEAAPSDKQIQWYQLYVNSDRKITDDLVKNVEKLGVKALFVTVDAPSLGQREKDMKLKFSNTKAGPKAMKKTNVEESQGASRALSKFIDPSLTWKDIEELKKKTKLPIVIKGVQRTEDVIKAAEIGVSGVVLSNHGGRQLDFSRAPIEVLAETMPILEQRNLKDKLEVFVDGGVRRGTDVLKALCLGAKGVGLGRPFLYANSCYGRNGVEKAIEILRDEIEMSMRLLGVTSIAELKPDLLDLSTLKARTVGVPNDVLYNEVYEGPTLTEFEDA
Turning to B1, in “purified protein”, the Km is 740 µM and the Vmax came to 0.66 µM/min/mg.
